The target of experiment [1] is myosin 5 heavy meromyosin (HMM) (UniProt Q99104). The experiment can be described thus: inhibition of actin-activated MgATPase.
Experiment [2] has the same target. The experiment can be described thus: inhibition of actin-activated MgATPase. This is another data set of the same source.

The values that follow come from PMC1852638.

pKi: −log10 of the molar value. Like-named read-outs stand apart in the source and are kept apart here.

What is called pKi is the negative decadic logarithm of the Ki, by convention in mol/L.

Turning to “glutathione S-transferase (GST)-47 kDa GTD fusion protein, dimer (from UniProt Q99104 1-1853) (domain or fragment)”, the pKi in experiment [1] was 6.28; in experiment [2], 6.12.
